Test results as given in patent US20090162378A1.

B1: HCMV-20 scFv antibody, purified His-tag fused polypeptide expressed in E. coli (scFv)
scFv: MAQVQLQESGPGLVKPSGTLSLTCAVSGGSISSSNWWSWVRQPPGKGLEWIGEIYHSGSTNYNPSLKSRVTISVDKSKNQFSLKLSSVTAADTAVYYCAREGSYEAFDYWGQGTLVTVSSGGGGSGGGGSGGGGSNFMLTQPHSVSESPGKTVTISCTRSSGSIASNYVQWYQQRPGSAPSTVIYDDNQRPSGVPDRFSGSIDSSSNSASLTISGLKTEDEADYYCQSYDSSNHGVVFGGGTKLTVLGAA
B2: HCMV-20 scFv antibody displayed on phage (positive phage clone from the mixed scFv phage display library) (scFv)
scFv: B1 scFv

Legend:
[1] = target: HCMV RC256 particles (human cytomegalovirus strain RC256) (human cytomegalovirus); experiment: cell-based or functional assay
[2] = target: HCMV RC256 particles (human cytomegalovirus strain RC256) (human cytomegalovirus); experiment: phage ELISA; plate coated with HCMV RC256 against a control plate coated with lysate of E. coli transfected with pET-22b; detection with HRP anti-M13

| Binder | plaque number, Test 1, 1.0 uM HCMV-20 (virus only: 152) [1] [plaques] | plaque number, Test 1, 2.0 uM HCMV-20 (virus only: 152) [1] [plaques] | plaque number, Test 1, 4.1 uM HCMV-20 (virus only: 152) [1] [plaques] | plaque number, Test 1, 8.1 uM HCMV-20 (virus only: 152) [1] [plaques] | plaque number, Test 1, 16.3 uM HCMV-20 (virus only: 152) [1] [plaques] | plaque number, Test 2, 1.0 uM HCMV-20 (virus only: 139) [1] [plaques] | plaque number, Test 2, 2.0 uM HCMV-20 (virus only: 139) [1] [plaques] | plaque number, Test 2, 4.1 uM HCMV-20 (virus only: 139) [1] [plaques] | plaque number, Test 2, 8.1 uM HCMV-20 (virus only: 139) [1] [plaques] | plaque number, Test 2, 16.3 uM HCMV-20 (virus only: 139) [1] [plaques] | HCMV/control (ELISA signal ratio) [2] |
| --- | --- | --- | --- | --- | --- | --- | --- | --- | --- | --- | --- |
| B1 | 92 | 36 | 23 | 20 | 15 | 93 | 42 | 17 | 16 | 16 | – |
| B2 | – | – | – | – | – | – | – | – | – | – | > 8 |
